We go through one molecule from paper doi:10.1101/306175.

For series [1], the target named is DNA polymerase I Klenow Fragment (KF) (E. coli, UniProt P00582 324-928, D424A). Briefly: single-molecule FRET.
Series [2] deals with Pol β "wild-type" (unlabelled) (UniProt P06746 1-335, C239S;C267S;V303C). Kind of series: single-molecule FRET titration.

B1: 1-nt gapped DNA bending sensor (Cy3B/Cy5) (dsDNA)
DNA 1: CCTCATTCTTCGTCCCATTACCATACATCC
DNA 2: CCACGAAGCAGGCTCTACTCTCTAAGGATGTATGGTAATGGGACGAAGAATGAGG
DNA 3: TAGAGAGTAGAGCCTGCTTCGTGG
modifications: primer 3' dideoxy-terminated (printed TCCH); 5'-phosphate on downstream strand
As usually defined, the Kd is the constant that tells how readily two partners part at equilibrium. With B1, the binding result in series [1] is given as “binds”. In addition, in series [2], binding was put at a Kd of 19 ± 2 nM.
